According to PMC7769458, “In vitro and in vivo characterization of Recifercept, a soluble fibroblast growth factor receptor 3, as treatment for achondroplasia” (PLoS ONE, 2020):

Key:
Conditions in all cases: both partners purified
human FGF8 = human FGF8 (human, UniProt P55075 23-233, Isoform, supplier and limits are not printed. Assumed the FGF8b isoform (mature 23-215), the usual commercial recombinant form and the one that binds FGFR3c; the P55075 canonical sequence is FGF8e. Th); test: SPR; as a1 (Recifercept amine-coupled on a CM5 chip, hFGF in HBS-EP, single cycle kinetics, 0 to 16 nM, 1:1 fit, triplicate) but with 16 nM heparin in each tested concentration (FGF8 subfamily)
human FGF17 = biological target: T1, human FGF17 (human, UniProt O60258 23-216); test: as above
T1 construct: fibroblast growth factor 17, human, recombinant; also called hFGF17; source: recombinant
T1 sequence (looked up): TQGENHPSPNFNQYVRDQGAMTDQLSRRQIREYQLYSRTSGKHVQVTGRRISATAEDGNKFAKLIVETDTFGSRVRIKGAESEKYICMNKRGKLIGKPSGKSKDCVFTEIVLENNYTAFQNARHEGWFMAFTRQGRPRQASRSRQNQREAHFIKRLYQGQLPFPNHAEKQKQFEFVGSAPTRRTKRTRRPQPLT

human FGF18 = biological target: T2, human FGF18 (human, UniProt O76093 28-207); test: as above
T2 construct: fibroblast growth factor 18, human, recombinant; also called hFGF18; source: recombinant
T2 sequence (looked up): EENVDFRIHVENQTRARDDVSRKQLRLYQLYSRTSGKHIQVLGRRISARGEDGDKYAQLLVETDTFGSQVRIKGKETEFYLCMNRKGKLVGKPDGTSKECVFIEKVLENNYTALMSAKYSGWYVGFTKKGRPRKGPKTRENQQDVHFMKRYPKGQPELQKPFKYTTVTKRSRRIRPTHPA

human FGF1 = biological target: T3, human FGF1 (human, UniProt P05230 16-155); test: SPR; Biacore T200; Recifercept amine-coupled on a CM5 chip (about 400 RU); hFGF injected in HBS-EP (0.01 M HEPES, 0.15 M NaCl, 3 mM EDTA, 0.05% polysorbate 20, pH 7.4) at 50 ul/min; single cycle kinetics, 5 concentrations from 0 to 16 nM; global 1:1 fit; triplicate
T3 construct: fibroblast growth factor 1, human, recombinant; also called hFGF1; source: recombinant; bought: Peprotech for the cell assays
T3 sequence (P05230 16-155): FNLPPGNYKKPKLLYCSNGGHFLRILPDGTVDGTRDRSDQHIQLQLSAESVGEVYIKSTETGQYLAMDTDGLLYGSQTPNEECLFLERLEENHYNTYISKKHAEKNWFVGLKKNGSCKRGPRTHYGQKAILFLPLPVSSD

human FGF2 = biological target: T4, human FGF2 (human, UniProt P09038 143-288); test: as above
T4 construct: fibroblast growth factor 2, human, recombinant; also called hFGF2; source: recombinant; bought: Peprotech for the cell assays
T4 sequence (P09038 143-288): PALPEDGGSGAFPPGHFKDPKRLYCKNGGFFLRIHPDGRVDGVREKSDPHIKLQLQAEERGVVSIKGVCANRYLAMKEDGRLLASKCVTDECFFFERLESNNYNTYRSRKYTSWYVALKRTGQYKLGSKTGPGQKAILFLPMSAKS

human FGF9 = human FGF9 (human, UniProt P31371 4-208); test: as above
human FGF16 = biological target: T5, human FGF16 (human, UniProt O43320 1-207); test: as above
T5 construct: fibroblast growth factor 16, human, recombinant; also called hFGF16; source: recombinant

human FGF20 = biological target: T6, human FGF20 (human, UniProt Q9NP95 1-211); test: as above
T6 construct: fibroblast growth factor 20, human, recombinant; also called hFGF20; source: recombinant
T6 sequence (Q9NP95 whole entry): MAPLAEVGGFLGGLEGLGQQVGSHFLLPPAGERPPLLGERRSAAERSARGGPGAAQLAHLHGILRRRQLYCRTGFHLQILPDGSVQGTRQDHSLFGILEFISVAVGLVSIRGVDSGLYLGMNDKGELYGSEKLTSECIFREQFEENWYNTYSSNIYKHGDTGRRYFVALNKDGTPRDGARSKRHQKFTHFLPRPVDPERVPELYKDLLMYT

Kd (human FGF8): 4.28 nM
koff (human FGF8): 0.000705 s⁻¹
kon (human FGF8): 171000 M⁻¹ s⁻¹
Kd (human FGF17): 2.73 nM
koff (human FGF17): 0.000964 s⁻¹
kon (human FGF17): 390000 M⁻¹ s⁻¹
Kd (human FGF18): 4.17 nM
koff (human FGF18): 0.00105 s⁻¹
kon (human FGF18): 270000 M⁻¹ s⁻¹
Kd (human FGF1): 0.74 nM
koff (human FGF1): 0.000904 s⁻¹
kon (human FGF1): 1.33e+06 M⁻¹ s⁻¹
Kd (human FGF2): 3.4 nM
koff (human FGF2): 0.000898 s⁻¹
kon (human FGF2): 279000 M⁻¹ s⁻¹
Kd (human FGF9): 0.75 nM
koff (human FGF9): 0.00133 s⁻¹
kon (human FGF9): 1.83e+06 M⁻¹ s⁻¹
Kd (human FGF16): 0.94 nM
koff (human FGF16): 0.00253 s⁻¹
kon (human FGF16): 2.8e+06 M⁻¹ s⁻¹
Kd (human FGF20): 7.1 nM
koff (human FGF20): 0.000548 s⁻¹
kon (human FGF20): 123000 M⁻¹ s⁻¹
B1: Recifercept (receptor)
chain: ESLGTEQRVVGRAAEVPGPEPGQQEQLVFGSGDAVELSCPPPGGGPMGPTVWVKDGTGLVPSERVLVGPQRLQVLNASHEDSGAYSCRQRLTQRVLCHFSVRVTDAPSSGDDEDGEDEAEDTGVDTGAPYWTRPERMDKKLLAVPAANTVRFRCPAAGNPTPSISWLKNGREFRGEHRIGGIKLRHQQWSLVMESVVPSDRGNYTCVVENKFGSIRQTYTLDVLERSPHRPILQAGLPANQTAVLGSDVEFHCKVYSDAQPHIQWLKHVEVNGSKVGPDGTPYVTVLKTAGANTTDKELEVLSLHNVTFEDAGEYTCLAGNSIGFSHHSAWLVVLPVSLESNASMSSNT
notes: extracellular domain of human FGFR3 (P22607); also called soluble fibroblast growth factor receptor 3; modified soluble recombinant human FGFR3; source: GPEX CHO cell line, 50L single use bioreactor, media filtered, purified using chromatography
